Data published in publication PMC6995008 (Proceedings of the National Academy of Sciences of the …, 2020).

Experiments:
[1] = molecular target: the molecule itself; test: negative-stain electron microscopy
[2] = molecular target: RABV SAD-B19 large polymerase protein (L), 6xHis-tagged (rabies virus (RABV) SAD-B19, UniProt P16289 1-2127); test: negative-stain electron microscopy
RABV SAD-B19 large polymerase protein (L), 6xHis-tagged, sequence (P16289 whole entry): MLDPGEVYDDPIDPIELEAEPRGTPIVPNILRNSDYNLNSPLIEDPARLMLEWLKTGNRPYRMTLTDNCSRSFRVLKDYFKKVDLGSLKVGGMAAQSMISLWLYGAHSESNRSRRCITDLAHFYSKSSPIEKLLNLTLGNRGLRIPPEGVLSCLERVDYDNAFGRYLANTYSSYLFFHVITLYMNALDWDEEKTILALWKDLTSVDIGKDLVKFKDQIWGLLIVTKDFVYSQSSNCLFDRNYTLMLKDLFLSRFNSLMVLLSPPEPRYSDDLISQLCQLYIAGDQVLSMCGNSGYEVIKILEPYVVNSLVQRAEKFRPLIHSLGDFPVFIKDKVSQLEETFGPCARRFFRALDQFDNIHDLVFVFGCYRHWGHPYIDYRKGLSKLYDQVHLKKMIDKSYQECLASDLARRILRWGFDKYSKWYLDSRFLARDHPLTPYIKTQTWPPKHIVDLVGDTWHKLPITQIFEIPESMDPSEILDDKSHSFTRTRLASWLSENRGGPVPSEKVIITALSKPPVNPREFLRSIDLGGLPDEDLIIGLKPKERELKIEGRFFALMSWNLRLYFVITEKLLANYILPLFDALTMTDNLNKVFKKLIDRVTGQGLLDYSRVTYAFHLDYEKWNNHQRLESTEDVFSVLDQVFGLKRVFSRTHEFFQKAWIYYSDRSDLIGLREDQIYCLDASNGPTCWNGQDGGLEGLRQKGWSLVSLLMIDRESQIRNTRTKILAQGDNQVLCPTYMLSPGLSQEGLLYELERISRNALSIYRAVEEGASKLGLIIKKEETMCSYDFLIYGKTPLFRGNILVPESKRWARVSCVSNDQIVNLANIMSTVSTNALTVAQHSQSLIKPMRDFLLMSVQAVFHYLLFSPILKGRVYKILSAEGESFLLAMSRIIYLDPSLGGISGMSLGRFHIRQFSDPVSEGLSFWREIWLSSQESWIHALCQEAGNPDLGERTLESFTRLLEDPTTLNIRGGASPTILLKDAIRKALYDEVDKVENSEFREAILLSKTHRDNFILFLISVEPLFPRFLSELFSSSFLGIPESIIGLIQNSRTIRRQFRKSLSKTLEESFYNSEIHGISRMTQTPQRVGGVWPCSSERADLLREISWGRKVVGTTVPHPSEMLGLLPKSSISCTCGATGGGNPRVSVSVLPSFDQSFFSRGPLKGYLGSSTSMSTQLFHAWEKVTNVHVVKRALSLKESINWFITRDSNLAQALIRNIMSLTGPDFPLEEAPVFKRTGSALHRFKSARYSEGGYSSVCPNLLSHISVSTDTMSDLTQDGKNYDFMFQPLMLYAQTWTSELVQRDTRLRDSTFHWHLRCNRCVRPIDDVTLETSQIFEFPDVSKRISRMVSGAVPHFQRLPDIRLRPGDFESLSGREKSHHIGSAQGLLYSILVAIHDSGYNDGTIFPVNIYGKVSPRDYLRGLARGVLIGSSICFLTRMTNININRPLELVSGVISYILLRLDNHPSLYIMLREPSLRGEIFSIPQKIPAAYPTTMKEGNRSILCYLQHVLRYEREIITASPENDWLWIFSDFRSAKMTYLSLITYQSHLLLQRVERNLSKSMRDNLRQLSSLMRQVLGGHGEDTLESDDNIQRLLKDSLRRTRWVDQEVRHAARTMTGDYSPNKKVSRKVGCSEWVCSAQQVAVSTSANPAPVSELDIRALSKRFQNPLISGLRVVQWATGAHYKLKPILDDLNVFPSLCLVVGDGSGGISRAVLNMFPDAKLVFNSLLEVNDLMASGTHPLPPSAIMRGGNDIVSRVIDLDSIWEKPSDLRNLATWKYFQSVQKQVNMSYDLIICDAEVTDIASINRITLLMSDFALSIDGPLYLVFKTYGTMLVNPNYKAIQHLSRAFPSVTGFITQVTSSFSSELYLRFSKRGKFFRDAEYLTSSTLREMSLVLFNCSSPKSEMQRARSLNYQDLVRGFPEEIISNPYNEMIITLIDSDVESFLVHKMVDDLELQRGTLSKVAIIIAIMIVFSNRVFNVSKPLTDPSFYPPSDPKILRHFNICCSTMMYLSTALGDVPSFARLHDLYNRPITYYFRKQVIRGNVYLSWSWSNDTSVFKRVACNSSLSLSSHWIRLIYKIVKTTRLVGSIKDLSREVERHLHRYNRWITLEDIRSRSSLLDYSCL

B1: RABV SAD-B19 full-length P (PFL) with C-terminal StrepII tag (natural protein)
chain: MSKIFVNPSAIRAGLADLEMAEETVDLINRNIEDNQAHLQGEPIEVDNLPEDMGRLHLDDGKSPNHGEIAKVGEGKYREDFQMDEGEDPSFLFQSYLENVGVQIVRQMRSGERFLKIWSQTVEEIISYVAVNFPNPPGKSSEDKSTQTTGRELKKETTPTPSQRESQSSKARMAAQIASGPPALEWSATNEEDDLSVEAEIAHQIAESFSKKYKFPSRSSGILLYNFEQLKMNLDDIVKEAKNVPGVTRLAHDGSKLPLRCVLGWVALANSKKFQLLVESDKLSKIMQDDLNRYTSC
stoichiometry N [1]: 2
binding result [2]: binds
